The subject of experiment [1] is UPRE motif. The experiment can be described thus: UPRE luciferase reporter analysis in COS7 cells. Format: cell-based. Conditions: for activation of luciferase expression from UPRE reporter relative to vector control: absence of Tm.
The next experiment has as its system human CRP promoter. The experiment is described as follows: Human CRP promoter luciferase reporter in H2.35 cells. It is filed as cell-based. The protocol:
(§1) FIG. 10 depicts activation of expression of APR genes in vivo. (A) The nuclear form of CREBH or ATF6 activates expression of the endogenous SAP mRNA in mice. Northern blot analysis of the endogenous SAP mRNA in mice injected with vector expressing the nuclear form of ATF6 (ATF6 p50) or CREBH (CREBH-N). Wild-type C57BL/6J mice at 3 months of age were injected with 80 μg plasmid DNA expressing ATF6 p50, CREBH-N or empty vector DNA through hydrodynamic plasmid DNA tail-vein injection (Miao et al. 2004). Liver samples were collected from mice at 36 hours after injection, and were subjected to Northern blot analysis to detect the murine SAP mRNA levels. Experiments were performed at least 3 times and representative data is shown. (B-C) Nuclear forms of CREBH and ATF6 act synergistically to induce transcription from the human CRP promoter and the UPRE motif. To detect synergistic effects of CREBH and ATF6 on expression of the reporter, vector DNA (15 ng control vector, 10 ng CREBH- and/or 15 ng AFT6-expression vector) was mixed with 100 ng reporter construct and 150 ng pcDNA3-lacZ for transfection of H2.35 cells in one well of a 6-well plate. The amount of luciferase activity was normalized to the amount of β-galactosidase activity.
FIG. 11 depicts the synergistic interaction of CREBH with ATF6 to activate transcription of the major APR genes. (A) Luciferase reporter analysis of trans-activation effects of CREBH on promoters of the murine SAP gene and the human CRP gene in H2.35 cells. H2.35 cells in a 35 mm collagen-coated plate were co-transfected with a control vector or a CREBH expression vector (0.25 μg), the luciferase reporter (0.6 μg) and pcDNA3-LacZ (0.25 μg), and were then cultured in the absence or presence of Tm (5 μg/ml) for 10 hours. (B) CREBH-DN efficiently suppresses CREBH trans-activation on the murine SAP and the human CRP promoters. H2.35 cells were co-transfected with the luciferase reporter construct and a control vector or a vector expressing CREBH-DN, and were then cultured in the absence or presence of Tm (5 μg/ml) for 10 hours. (C) Interaction between ATF6 and CREBH was determined by IP-Western blot analysis. 293T cells were transfected with a control vector or a vector expressing the nuclear/cleaved form of CREBH, and were then cultured in the absence or presence of Tm for 8 hours. Total cell lysates were immunoprecipated by using an anti-human ATF6 polyclonal antibody or an anti-flag antibody and were then subjected to Western blot analysis by using anti-flag antibody or anti-human ATF6 antibody. Expression levels of CREBH in the transfected cells were determined by Western blot analysis of total cell lysates using the anti-flag antibody (lower panel). (D) Luciferase reporter analysis showing trans-activation effects of the nuclear forms of ATF6 or CREBH on the murine SAP and human CRP promoters in H2.35 cells. H2.35 cells in a 35 mm collagen-coated plate were co-transfected with a vector expressing ATF6 p50 or CREBH-N (0.25 μg), the luciferase reporter (0.6 μg) and pcDNA3-LacZ (0.25 μg). (E-F) Luciferase reporter analysis showing synergistic effects of CREBH and ATF6 on transcriptional induction from the murine SAP promoter (E), and the human CRP promoter (F) in H2.35 cells. […]

The subject of another experiment is murine SAP promoter. The experiment is described as follows: Murine SAP promoter luciferase reporter in H2.35 cells. It is filed as cell-based. The protocol: FIG. 11 depicts the synergistic interaction of CREBH with ATF6 to activate transcription of the major APR genes. (A) Luciferase reporter analysis of trans-activation effects of CREBH on promoters of the murine SAP gene and the human CRP gene in H2.35 cells. H2.35 cells in a 35 mm collagen-coated plate were co-transfected with a control vector or a CREBH expression vector (0.25 μg), the luciferase reporter (0.6 μg) and pcDNA3-LacZ (0.25 μg), and were then cultured in the absence or presence of Tm (5 μg/ml) for 10 hours. (B) CREBH-DN efficiently suppresses CREBH trans-activation on the murine SAP and the human CRP promoters. H2.35 cells were co-transfected with the luciferase reporter construct and a control vector or a vector expressing CREBH-DN, and were then cultured in the absence or presence of Tm (5 μg/ml) for 10 hours. (C) Interaction between ATF6 and CREBH was determined by IP-Western blot analysis. 293T cells were transfected with a control vector or a vector expressing the nuclear/cleaved form of CREBH, and were then cultured in the absence or presence of Tm for 8 hours. Total cell lysates were immunoprecipated by using an anti-human ATF6 polyclonal antibody or an anti-flag antibody and were then subjected to Western blot analysis by using anti-flag antibody or anti-human ATF6 antibody. Expression levels of CREBH in the transfected cells were determined by Western blot analysis of total cell lysates using the anti-flag antibody (lower panel). (D) Luciferase reporter analysis showing trans-activation effects of the nuclear forms of ATF6 or CREBH on the murine SAP and human CRP promoters in H2.35 cells. H2.35 cells in a 35 mm collagen-coated plate were co-transfected with a vector expressing ATF6 p50 or CREBH-N (0.25 μg), the luciferase reporter (0.6 μg) and pcDNA3-LacZ (0.25 μg). (E-F) Luciferase reporter analysis showing synergistic effects of CREBH and ATF6 on transcriptional induction from the murine SAP promoter (E), and the human CRP promoter (F) in H2.35 cells. To detect synergistic effects of CREBH and ATF6 on reporter gene expression, vector DNA (25 ng control vector, 20 ng CREBH- and/or 25 ng ATF6-expression vector) was mixed with 100 ng reporter construct and 150 ng pcDNA3-lacZ for transfection of H2.35 cells in a 35 mm collagen-coated plate.
Plasmids, pME18S, pME-CREBH Full and pME-CRE1H d™ were kindly provided by Dr. Sumio Sugano (Institute of Medical Science, University of Tokyo, Japan) (Omori et al., 2001). Plasmid pFlag-CREBH Full that expresses a full-length CREBH (amino acids 1-455) was constructed by insertion of a PCR product from pME-CREBH Full into expression vector pFlag-CMV-4 between EcoR I and BamH I. Vector pFlag-CMV-4 is designed for stable, cytoplasmic expression of N-terminal flag fusion proteins in mammalian cells (purchased from Sigma-Aldrich). Plasmid pFlag-CREBH-ΔC that expresses the nuclear form of CREBH (amino acids 1-320) was constructed by insertion of a PCR product from pME-CREBH d™ into pFlag-CMV-4 between EcoR I and BamH I. Plasmid pFlag-CREBH-DN that expresses only the CREBH bZIP domain (amino acids 209-320) was constructed by insertion of a PCR product from pME-CREBH Full into pFlag-CMV-4 between EcoR I and BamH I. The reporter plasmid containing the luciferase gene under control of the human CRP gene, pGL3-CRP, was constructed by insertion of a 637 bp fragment containing 5′-flanking and promoter region of the human CRP gene into luciferase reporter vector pGL3-basic (purchased from Promega, Madison, Wis.) between Sac I and Xho I. The 637 bp 5′-flanking fragment of the human CRP gene was amplified from human genomic DNA by using a forward primer: 5′-[…]-3′; and a reverse primer 5′-[…]-3′. The reporter plasmid containing the luciferase gene under control of the mouse SAP gene, pGL3-SAP, was constructed by insertion of an 863 bp fragment containing 5′-flanking and promoter region of the mouse SAP gene into pGL3-basic between Xho I and Hind III. […]

In experiment [2] the test system is UPRE motif. The experiment can be described thus: UPRE luciferase reporter in H2.35 cells. Format: cell-based. The method, then:
as §1, with “The amount of luciferase activity was normalized to the amount of β-galactosidase activity.” left out
At 36 h post transfection, transfected cells were lysed and assayed for luciferase and β-galactosidase activity by using a Tropix Luciferase/β-Galactosidase Dual Light. […] Photons were detected in an Optima II Luminator (MGM Instruments). […]

The test system of a further experiment is murine SAP mRNA. The experiment can be described thus: Endogenous SAP mRNA in liver after hydrodynamic plasmid DNA tail-vein injection (Northern blot). It is filed as in vivo, mouse. Conditions: wild-type mice; 80 μg plasmid DNA tail vein injection; 36 hours. The protocol: as §1
[3] abbreviates: H2.35 cells, Tm 5 μg/ml 10 hours, endogenous CREBH.
Where [4] appears, read: co-expression with ATF6 p50, absence or presence of ER stress.
The mark [5] stands for this setting: co-expression with full-length or cleaved CREBH, absence or presence of ER stress.

The values below come from patent US20070111258A1, “Compositions and methods for modulating the acute phase response” (priority 2005, published 2007).

B1: CREBH-F: flag-tagged full-length CREBH (amino acids 1-455) expressed from a transfected vector (protein, UniProt Q68CJ9 1-461, looked up)
chain: MNTDLAAGKMASAACSMDPIDSFELLDLLFDRQDGILRHVELGEGWGHVKDQQVLPNPDSDDFLSSILGSGDSLPSSPLWSPEGSDSGISEDLPSDPQDTPPRSGPATSPAGCHPAQPGKGPCLSYHPGNSCSTTTPGPVIQVPEASVTIDLEMWSPGGRICAEKPADPVDLSPRCNLTVKDLLLSGSSGDLQQHHLGASYLLRPGAGHCQELVLTEDEKKLLAKEGITLPTQLPLTKYEERVLKKIRRKIRNKQSAQESRKKKKEYIDGLETRMSACTAQNQELQRKVLHLEKQNLSLLEQLKKLQAIVVQSTSKSAQTGTCVAVLLLSFALIILPSISPFGPNKTESPGDFAPVRVFSRTLHNDAASRVAADAVPGSEAPGPRPEADTTREESPGSPGADWGFQDTANLTNSTEELDNATLVLRNATEGLGQVALLDWVAPGPSTGSGRAGLEAAGDEL
modifications: full-length Flag tag
notes: flag-tagged full-length CREBH (amino acids 1-455) expressed from a transfected vector
On to B1, for which, in the experiment on UPRE motif [1], the “activation of luciferase expression from UPRE reporter relative to vector control” value is recorded as “approximately 2 fold”. Further, the “activation of luciferase expression from UPRE reporter” value in the experiment on UPRE motif [1] (after Tm treatment, 10 hours) was “more than 10 fold”. For the same molecule, the “expression of luciferase under control of the human CRP promoter” value in the experiment with human CRP promoter (H2.35 cells, expression of CREBH) is listed as “significantly activated”. In addition, the “expression of luciferase from the SAP reporter relative to vector control” value with murine SAP promoter (H2.35 cells, Tm 5 μg/ml 10 hours) is “approximately 14 fold”; in the experiment on murine SAP promoter (H2.35 cells, without Tm), “approximately 2.5 fold”.

B2: CREBH-DN: dominant negative truncated CREBH, only the bZIP domain (amino acids 209-320), expressed from plasmid pFlag-CREBH-DN (protein, UniProt Q68CJ9 209-320, looked up, fragment)
chain: HCQELVLTEDEKKLLAKEGITLPTQLPLTKYEERVLKKIRRKIRNKQSAQESRKKKKEYIDGLETRMSACTAQNQELQRKVLHLEKQNLSLLEQLKKLQAIVVQSTSKSAQT
modifications: bZIP domain Flag tag
notes: dominant negative truncated CREBH, only the bZIP domain (amino acids 209-320), expressed from plasmid pFlag-CREBH-DN
Turning to B2, the “luciferase expression from the human CRP promoter in response to ER stress” value in the experiment with human CRP promoter (setting [3]) was “efficiently suppressed luciferase expression”. In addition, in the experiment on human CRP promoter (setting [4]), the “ATF6-mediated trans-activation on the CRP reporter” value is “efficiently suppressed ATF6-mediated trans-activation”. Besides, the “CREBH-induced reporter gene expression, CRP reporter” value in the experiment with human CRP promoter (setting [5]) was “significantly suppressed the ability for CREBH to induce reporter gene expression”. Further, the “luciferase expression from the murine SAP promoter in response to ER stress” value with murine SAP promoter (setting [3]) is given as “efficiently suppressed luciferase expression”. Also, the “ATF6-mediated trans-activation on the SAP reporter” value in the experiment on murine SAP promoter (setting [4]) was “efficiently suppressed ATF6-mediated trans-activation”. Further, the “CREBH-induced reporter gene expression, SAP reporter” value with murine SAP promoter (setting [5]) is given as “significantly suppressed the ability for CREBH to induce reporter gene expression”. Also, the “ATF6-mediated trans-activation on the UPRE reporter” value with UPRE motif [2] (co-expression with ATF6 p50) is on record as “efficiently suppressed ATF6-mediated trans-activation”. Further, in the experiment with UPRE motif [2] (co-expression with cleaved CREBH), the “CREBH-induced reporter gene expression, UPRE reporter” value is recorded as “significantly suppressed the ability for CREBH to induce reporter gene expression”.

B3: CREBH-N: nuclear/cleaved form of CREBH (amino acids 1-320) expressed from a vector (protein, UniProt Q68CJ9 1-320, looked up, fragment)
chain: MNTDLAAGKMASAACSMDPIDSFELLDLLFDRQDGILRHVELGEGWGHVKDQQVLPNPDSDDFLSSILGSGDSLPSSPLWSPEGSDSGISEDLPSDPQDTPPRSGPATSPAGCHPAQPGKGPCLSYHPGNSCSTTTPGPVIQVPEASVTIDLEMWSPGGRICAEKPADPVDLSPRCNLTVKDLLLSGSSGDLQQHHLGASYLLRPGAGHCQELVLTEDEKKLLAKEGITLPTQLPLTKYEERVLKKIRRKIRNKQSAQESRKKKKEYIDGLETRMSACTAQNQELQRKVLHLEKQNLSLLEQLKKLQAIVVQSTSKSAQT
In the case of B3, in the experiment on UPRE motif [1], the “activation of luciferase expression from UPRE reporter relative to vector control” value is “approximately 18 fold”. Besides, the “expression of luciferase from the CRP reporter compared to the controls” value in the experiment on human CRP promoter (H2.35 cells) is listed as approximately 11 fold. Besides, the “expression of luciferase from the SAP reporter relative to vector control” value in the experiment on murine SAP promoter (H2.35 cells, without Tm) is recorded as “approximately 16 fold”. In addition, in the experiment on murine SAP mRNA, the “murine SAP mRNA in the liver compared to control vector” value was “higher levels of the murine SAP mRNA”.
